Data: patent US20070077597A1 (published 2007)
Changes are numbered by the printed parent chain.

Key:
[1] = molecular target: T1, human thrombin receptor (PAR1) (human, UniProt P25116 42-425); assay: ELISA dose-response, purified MBP-Gαq on purified reconstituted PAR1 with thrombin receptor activating peptide
T1 sequence (looked up): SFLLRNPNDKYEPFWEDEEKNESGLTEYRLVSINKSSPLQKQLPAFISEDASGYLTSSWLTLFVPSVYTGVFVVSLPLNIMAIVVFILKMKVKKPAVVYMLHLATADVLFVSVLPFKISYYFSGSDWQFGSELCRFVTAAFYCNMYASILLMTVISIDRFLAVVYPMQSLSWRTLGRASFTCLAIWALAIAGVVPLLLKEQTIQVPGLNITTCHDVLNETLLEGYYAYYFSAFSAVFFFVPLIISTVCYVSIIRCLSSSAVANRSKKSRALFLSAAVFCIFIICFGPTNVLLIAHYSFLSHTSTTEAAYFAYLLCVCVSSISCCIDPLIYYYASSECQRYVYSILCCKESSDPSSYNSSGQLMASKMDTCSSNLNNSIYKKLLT

[2] = molecular target: T1, human thrombin receptor (PAR1); assay: cell-based or functional assay
[3] = molecular target: T2, light-activated bovine rhodopsin (metarhodopsin II) in rod outer segment membranes (bovine, UniProt P02699 1-348, retinylidene chromophore on Lys-296 (all-trans after light)); assay: ELISA of clone lysate on rhodopsin
T2 construct: whole, on cells; also called MII
Procedure: The methods of Example 7 repeated using rhodopsin screening with a Gt library. To identify the rank order of binding, the lysates were analyzed using ELISA methods in which the secondary antibody was conjugated to HRP. Following addition of the substrate, the microplate was read using a spectrophotometer. The binding is the OD₄₅₀ for wells with receptor—OD₄₅₀ for wells in which no receptor (control wells with empty lipid vesicles).

[4] = molecular target: T2, light-activated bovine rhodopsin …; assay: first screening of the Gαt library on light-activated rhodopsin
[5] = molecular target: LacI fusion clone 2 (Gt library, dark-adapted rhodopsin screen) (E. coli, UniProt P03023 1-360); assay: panning, LacI Gt library on immobilized ROS membranes kept in the dark
[6] = molecular target: LacI fusion clone 3 (Gt library, dark-adapted rhodopsin screen) (E. coli, UniProt P03023 1-360); assay: as above
[7] = molecular target: LacI fusion clone 7 (Gt library, dark-adapted rhodopsin screen) (E. coli, UniProt P03023 1-360); assay: as above
[8] = molecular target: LacI fusion clone 17 (Gt library, dark-adapted rhodopsin screen) (E. coli, UniProt P03023 1-360); assay: as above
[9] = molecular target: LacI fusion clone 21 (Gt library, dark-adapted rhodopsin screen) (E. coli, UniProt P03023 1-360); assay: as above
[10] = molecular target: LacI fusion clone 26 (Gt library, dark-adapted rhodopsin screen) (E. coli, UniProt P03023 1-360); assay: as above
[11] = molecular target: LacI fusion clone 33/37 (Gt library, dark-adapted rhodopsin screen) (E. coli, UniProt P03023 1-360); assay: as above
[12] = molecular target: LacI fusion clone 41 (Gt library, dark-adapted rhodopsin screen) (E. coli, UniProt P03023 1-360); assay: as above

Molecule: purified maltose binding protein-Gαq (MBP-Gαq), native Gq C-terminal peptide fusion
- IC50 [1]: 214 nM

Molecule: MGIKNNLKDCGLF [Gαi C-terminal minigene peptide (pcDNA-Gαi)]
- thrombin-mediated HA-MAPK activity in HMEC [2]: 59 % decrease

Molecule: MGLQLNLKEYNAV [Gαq C-terminal minigene peptide (pcDNA-Gαq)]
- thrombin-mediated HA-MAPK activity in HMEC [2]: 57 % decrease

Molecule: MGLQENLKDIMLQ [Gα12 C-terminal minigene peptide (pcDNA-Gα12)]
- thrombin-mediated HA-MAPK activity in HMEC [2]: 50 % decrease

Molecule: MGLHDNLKQLMLQ [Gα13 C-terminal minigene peptide (pcDNA-Gα13)]
- thrombin-mediated HA-MAPK activity in HMEC [2]: 77 % decrease

B1: LacI fusion clone L3 (Gt library) (other, E. coli, not shown: small tags and cut ends)
chain: MKPVTLYDVAEYAGVSYQTVSRVVNQASHVSAKTREKVEAAMAELNYIPNRVAQQLAGKQSLLIGVATSSLALHAPSQIVAAIKSRADQLGASVVVSMVERSGVEACKAAVHNLLAQRVSGLIINYPLDDQDAIAVEAACTNVPALFLDVSDQTPINSIIFSHEDGTRLGVEHLVALGHQQIALLAGPLSSVSARLRLAGWHKYLTRNQIQPIAEREGDWSAMSGFQQTMQMLNEGIVPTAMLVANDQMALGAMRAITESGLRVGADISVVGYDDTEDSSCYIPPLTTIKQDFRLLGQTSVDRLLQLSQGQAVKGNQLLPVSLVKRKTTLAPNTQTASPRALADSLMQLARQVSRLESGQILENLKDCGLF
- ELISA (OD450 with receptor minus OD450 without receptor) [3]: 0.839 OD450

B2: LacI fusion clone 8 (Gt library) (other, E. coli, not shown: small tags and cut ends)
chain: B1 chain with I361L, K366R, L370M
notes: also called Peptide 8; HAP
- fold higher binding than the native sequence [4]: 1000 fold

B3: LacI fusion clone 13 (Gt library), IRGSLKDCGLF (other, E. coli, not shown: small tags and cut ends)
chain: B1 chain with L362R, E363G, N364S
notes: also called L20
- ELISA (OD450 with receptor minus OD450 without receptor) [3]: 0.423 OD450

B4: LacI fusion clone L6 (Gt library) (other, E. coli, not shown: small tags and cut ends)
chain: B1 chain with L362C
- ELISA (OD450 with receptor minus OD450 without receptor) [3]: 0.342 OD450

B5: LacI fusion clone L10 (Gt library), IHDRLKDCGLF (other, E. coli, not shown: small tags and cut ends)
chain: B1 chain with L362H, E363D, N364R
notes: this is the first
- ELISA (OD450 with receptor minus OD450 without receptor) [3]: 0.506 OD450

B6: LacI fusion clone L14 (Gt library) (other, E. coli, not shown: small tags and cut ends)
chain: B1 chain with I361L, L362R, F371L
- ELISA (OD450 with receptor minus OD450 without receptor) [3]: 0.833 OD450

B7: LacI fusion clone L15 (Gt library) (other, E. coli, not shown: small tags and cut ends)
chain: B1 chain with I361V, L362R, E363D, N364I
- ELISA (OD450 with receptor minus OD450 without receptor) [3]: 0.621 OD450

B8: LacI fusion clone L33 (Gt library) (other, E. coli, not shown: small tags and cut ends)
chain: B1 chain with L362V, N364I, K366E
- ELISA (OD450 with receptor minus OD450 without receptor) [3]: 1.01 OD450

B9: LacI fusion clone L34 (Gt library) (other, E. coli, not shown: small tags and cut ends)
chain: B1 chain with N364S, K366N, D367E
- ELISA (OD450 with receptor minus OD450 without receptor) [3]: 0.603 OD450

B10: LacI fusion clone L38 (Gt library) (other, E. coli, not shown: small tags and cut ends)
chain: B1 chain with I361L, E363D, N364I
- ELISA (OD450 with receptor minus OD450 without receptor) [3]: 0.823 OD450

B11: dark-adapted bovine rhodopsin in rod outer segment membranes (receptor, UniProt P02699 1-348, looked up)
chain: MNGTEGPNFYVPFSNKTGVVRSPFEAPQYYLAEPWQFSMLAAYMFLLIMLGFPINFLTLYVTVQHKKLRTPLNYILLNLAVADLFMVFGGFTTTLYTSLHGYFVFGPTGCNLEGFFATLGGEIALWSLVVLAIERYVVVCKPMSNFRFGENHAIMGVAFTWVMALACAAPPLVGWSRYIPEGMQCSCGIDYYTPHEETNNESFVIYMFVVHFIIPLIVIFFCYGQLVFTVKEAAAQQQESATTQKAEKEVTRMVIIMVIAFLICWLPYAGVAFYIFTHQGSDFGPIFMTIPAFFAKTSAVYNPVIYIMMNKQFRNCMVTTLCCGKNPLGDDEASTTVSKTETSQVAPA
modifications: 11-cis retinylidene chromophore on Lys-296
notes: whole, on cells; same protein as m1, left in the dark
- binding result [5]: binds
- binding result [6]: binds
- binding result [7]: binds
- binding result [8]: binds
- binding result [9]: binds
- binding result [10]: binds
- binding result [11]: binds
- binding result [12]: binds
